MFI and Kd data for 19 molecules are collected here from US20220185898A1 (Alector, published 2022).

A word on the Kd: it is the free concentration of one partner at which half of the binding sites on the other are occupied at equilibrium, for simple one-to-one binding. Read a low Kd as higher affinity.

The target in assay [1] is T1, human Sortilin expressed on 293 / HEK293T cells (human, UniProt Q99523 78-830).
T1 construct: full-length recombinant human Sortilin; also called hSort; SORT1
Nature of the assay: FACS, 293 cells. (In flow cytometry, cells or beads pass a laser one at a time.)
Protocol: (§1) Cells were harvested, plated at 10⁵/ml in a 96 well plate, washed, and incubated in 100 μl PBS containing 10 μg/ml Mab and 2% FBS for 1 hour in ice. Cells were then washed twice and incubated in 100 μl PBS+2% FBS containing 5 μg/ml PE-conjugated anti-human secondary antibody for 30 minutes in ice. Cells were washed twice in cold PBS and data was acquired on a BD FACS Canto. Data analysis and calculation of MFI values was performed with FlowJo (TreeStar) software version 10.0.7.

The target of assay [2] is T2, mouse Sortilin expressed on 293 / HEK293T cells (mouse, UniProt Q6PHU5 74-825).
T2 construct: full-length recombinant mouse Sortilin; also called mSort; msSort
The assay can be described thus: FACS, 293 cells.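 Further: antibodies at 10 µg/ml bound to cells for 1 h on ice, detected with PE-labelled anti-human secondary antibody by flow cytometry, reported as mean fluorescence intensity.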
Protocol: as §1

The target in assay [3] is T3, human Sortilin Fc fusion protein (human, UniProt Q99523 78-755).
T3 construct: whole entry named; also called hSort-Fc
The assay can be described thus: ForteBio, avid.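 Further: whole IgG captured on AHQ sensors, then contacted with Sortilin Fc fusion antigen at 100 nM, followed by an off-rate phase in buffer.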 On the technique in general: Biolayer interferometry detects binding as a change in optical thickness at a sensor tip.
Protocol: (§2) The affinity for the Sortilin antibodies was determined by measuring their KD by ForteBio. […] Briefly, ForteBio affinity measurements were performed by loading IgGs on-line onto AHQ sensors. Sensors were equilibrated off-line in assay buffer for 30 min and then monitored on-line for 60 seconds for baseline establishment. For avid binding measurement, sensors with loaded IgGs were exposed to 100 nM antigen (human or mouse Sortilin Fc fusion) for 3, afterwards they were transferred to assay buffer for 3 min for off-rate measurement.
(§3) The binding affinity of each anti-Sortilin antibody was determined by measuring their KD by ForteBio or MSD-SET at room temperature. […] Briefly, ForteBio affinity measurements were performed by loading IgGs on-line onto AHQ sensors. Sensors were equilibrated off-line in assay buffer for 30 min and then monitored on-line for 60 seconds for baseline establishment. Sensors with loaded IgGs were exposed to 100 nM antigen for 5 minutes, then transferred to assay buffer for 5 min for off-rate measurement. Kinetics were analyzed using the 1:1 binding model.

Assay [4] deals with T4, mouse Sortilin Fc fusion protein (mouse; human, UniProt Q6PHU5 74-754).
T4 construct: whole entry named; also called mSort-Fc
Nature of the assay: ForteBio, avid.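 Further: whole IgG captured on AHQ sensors, then contacted with Sortilin Fc fusion antigen at 100 nM, followed by an off-rate phase in buffer.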
Protocol: as §2, §3

B1: S-73 (antibody, V domains shown)
VH: QVQLQESGPGLVKPSQTLSLTCTVSGGSISSGTYYWSWIRQHPGKGLEWIGYIYYSGSTYYNPSLKSRVTISVDTSKNQFSLKLSSVTAADTAVYYCARGVGRYRVADYWGQGTLVTVSS
VL: EIVLTQSPATLSLSPGERATLSCRASQSVSSYLAWYQQKPGQAPRLLIYDASNRATGIPARFSGSGSGTDFTLTISSLEPEDFAVYYCQQASVYPPITFGGGTKVEIK
notes: IgG
B1: the results for the MFI in assay [1] and in assay [2] were 8070 and 7670, respectively. Further, the Kd in assay [3] worked out at 3.33 nM; in assay [4] it was 19.7 nM.

B2: S-74 (antibody, V domains shown)
VH: QVQLQESGPGLVKPSQTLSLTCTVSGGSISSGTYYWSWIRQHPGKGLEWIGYIYYSGSTYYNPSLKSRVTISVDTSKNQFSLKLSSVTAADTAVYYCARGVGRYRVADYWGQGTLVTVSS
VL: EIVMTQSPATLSLSPGERATLSCRASQSVSSYLAWYQQKPGQAPRLLIYDSSNRATGIPARFSGSGSGTDFTLTISSLEPEDFAVYYCQQETNMPPITFGGGTKVEIK
notes: IgG
B2: the MFI in assay [1] was 9210; in assay [2] it was 7300. This molecule also gave an equilibrium dissociation constant (Kd) in assay [3] of 3.05 nM.

B3: S-51 (antibody, V domains shown)
VH: QVQLVESGGGVVQPGRSLRLSCAASGFTFSSYGMHWVRQAPGKGLEWVAVISYDGSNKYYADSVKGRFTISRDNSKNTLYLQMNSLRAEDTAVYYCAKGLEYYDSSRLYYPYYYYMDVWGKGTTVTVSS
VL: EIVLTQSPATLSLSPGERATLSCRASQSVSSYLAWYQQKPGQAPRLLIYDASKRATGIPARFSGSGSGTDFTLTISSLEPEDFAVYYCQQRSNYPITFGGGTKVEIK
notes: IgG
In the case of B3, the results for the MFI in assay [1] and in assay [2] were 12200 and 21900, respectively. The Kd in assay [3] was 4.12 nM; in assay [4] it was 1.21 nM.

B4: S-40 (antibody, V domains shown)
VH: not shown
VL: EIVMTQSPATLSLSPGERATLSCRASQSVSSYLAWYQQKPGQAPRLLIYDASNRATGIPARFSGSGSGTDFTLTISSLEPEDFAVYYCQQRSALPFTFGGGTKVEIK
notes: IgG
As for B4, the MFI in assay [1] worked out at 7410; in assay [2], 2630. Further, in assay [3], binding was characterised by a dissociation constant (Kd) of 2.43 nM.

B5: S-84 (antibody, V domains shown)
VH: QLQLQESGPGLVKPSETLSLTCTVSGGSISSSSYYWGWIRQPPGKGLEWIGSISYSGSTYYNPSLKSRVTISVDTSKNQFSLKLSSVTAADTAVYYCARGGTTWLVADVWGQGTMVTVSS
VL: not shown
notes: IgG
As to B5, the MFI was 9240 in assay [1] and 15400 in assay [2]. In addition, in assay [3], binding was characterised by a dissociation constant (Kd) of 4.4 nM.

B6: S-81 (antibody, V domains shown)
VH: QLQLQESGPGLVKPSETLSLTCTVSGGSISSSSYYWGWIRQPPGKGLEWIGSIYYSGSTYYNPSLKSRVTISVDTSKNQFSLKLSSVTAADTAVYYCARERWDLGHGMDVWGQGTTVTVSS
VL: not shown
notes: IgG
Turning to B6, the MFI in assay [1] amounted to 8940; in assay [2], 16600. Also, the dissociation constant (Kd) in assay [3] came out at 2.2 nM.

B7: S-55 (antibody, V domains shown)
VH: QVQLQESGPGLVKPSETLSLTCAVSGYSISSGYYWGWIRQPPGKGLEWIGSIYHSGSTYYNPSLKSRVTISVDTSKNQFSLKLSSVTAADTAVYYCARGRPELGWDKYFQHWGQGTLVTVSS
VL: DIQMTQSPSSVSASVGDRVTITCRASQGISRWLAWYQQKPGKAPKLLIYAASSLQSGVPSRFSGSGSGTDFTLTISSLQPEDFATYYCQQANALPTFGGGTKVEIK
notes: IgG
Regarding B7, the MFI in assay [1] came to 9480; in assay [2], 21400. In addition, the figures for the Kd in assay [3] and in assay [4] were 2.28 nM and 1.13 nM, respectively.

B8: S-78 (antibody, V domains shown)
VH: QLQLQESGPGLVKPSETLSLTCTVSGGSISSSDYYWGWIRQPPGKGLEWIGSIYYSGSTYYNPSLKSRVTISVDTSKNQFSLKLSSVTAADTAVYYCARSLAMSGAYFDLWGRGTLVTVSS
VL: not shown
notes: IgG
Regarding B8, the MFI in assay [1] came to 7120; in assay [2], 7930. For the same molecule, the Kd in assay [3] worked out at 3.51 nM; in assay [4], 10.6 nM.

B9: S-12 (antibody, V domains shown)
VH: QVQLVQSGAEVKKPGASVKVSCKASGYTFTSYGISWVRQAPGQGLEWMGWISAYNGNTNYAQKLQGRVTMTTDTSTSTAYMELRSLRSDDTAVYYCARDLPKYKWGWFDPWGQGTLVTVSS
VL: not shown
notes: IgG
Turning to B9, the MFI was 9760 in assay [1] and 18800 in assay [2]. In assay [3], this molecule returned a Kd of 9.35 nM.

B10: S-6 (antibody, V domains shown)
VH: not shown
VL: EIVMTQSPATLSVSPGERATLSCRASQSVSSNLAWYQQKPGQAPRLLIYGASTRATGIPARFSGSGSGTEFTLTISSLQSEDFAVYYCQQVANYPRTFGGGTKVEIK
notes: IgG; also called S-06
In the case of B10, the MFI came out at 11100 in assay [1] and 25600 in assay [2].

B11: S-69 (antibody, V domains shown)
VH: QVQLQESGPGLVKPSQTLSLTCTVSGGSISSGGYYWSWIRQHPGKGLEWIGYIYYSGSTYYNPSLKSRVTISVDTSKNQFSLKLSSVTAADTAVYYCARDRGGTHFGADHYYYGMDVWGQGTMVTVSS
VL: EIVMTQSPATLSVSPGERATLSCRASQSVSSSLAWYQQKPGQAPRLLIYGASTRATGIPARFSGSGSGTEFTLTISSLQSEDFAVYYCQQAADWPITFGGGTKVEIK
notes: IgG
Consider B11, for which the results for the MFI in assay [1] and in assay [2] were 8580 and 1890, respectively. Moreover, the Kd was 4.29 nM in assay [3] and 20.1 nM in assay [4].

B12: S-58 (antibody, V domains shown)
VH: QVQLQESGPGLVKPSETLSLTCAVSGYSISSGYYWGWIRQPPGKGLEWIGSIYHSGNTYYNPSLKSRVTISVDTSKNQFSLKLSSVTAADTAVYYCARGPPELGKMYFQHWGQGTLVTVSS
VL: EIVLTQSPATLSVSPGERATLSCRASQSVSSNLAWYQQKPGQAPRLLIYGASTRATGIPARFSGSGSGTEFTLTISSLQSEDFAVYYCQQDRKGPLTFGGGTKVEIK
notes: IgG
As to B12, the MFI in assay [1] amounted to 7770; in assay [2], 15100. Besides, the Kd in assay [3] amounted to 2.59 nM; in assay [4], 0.8 nM.

B13: S-61 (antibody, V domains shown)
VH: QVQLQESGPGLVKPSETLSLTCAVSGYSISSGYYWGWIRQPPGKGLEWIGSIYHSGSTYYNPSLKSRVTISVDTSKNQFSLKLSSVTAADTAVYYCARGSPRFYYGSGSYLDLFDIWGQGTMVTVSS
VL: EIVMTQSPATLSVSPGERATLSCRASQSVSSNLAWYQQKPGQAPRLLIYGASTRATGIPARFSGSGSGTEFTLTISSLQSEDFAVYYCQEYLNYPITFGGGTKVEIK
notes: IgG
In the case of B13, the MFI in assay [1] was 7480; in assay [2], 21800. Further, the Kd in assay [3] is 4.26 nM; in assay [4], 2.45 nM.

B14: S-83 (antibody, V domains shown)
VH: QLQLQESGPGLVKPSETLSLTCTVSGGSISSSSYYWGWIRQPPGKGLEWIGSIYYSGSTYYNPSLKSRVTISVDTSKNQFSLKLSSVTAADTAVYYCARGSPTWLRDYYMDVWGKGTTVTVSS
VL: EIVLTQSPATLSVSPGERATLSCRASQSVSSNLAWYQQKPGQAPRLLIYGASTRATGIPARFSGSGSGTEFTLTISSLQSEDFAVYYCQQYNAFPPTFGGGTKVEIK
notes: IgG
Consider B14, for which the MFI in assay [1] was found to be 9300. In assay [3], this molecule returned a Kd of 1.79 nM.

B15: S-26 (antibody, V domains shown)
VH: EVQLVESGGGLVKPGGSLRLSCAASGFTFSSYSMNWVRQAPGKGLEWVSSISSSSSYIYYADSVKGRFTISRDNAKNSLYLQMNSLRAEDTAVYYCARDRLGRGYKWNWFDPWGQGTLVTVSS
VL: DIQMTQSPSSVSASVGDRVTITCRASQGIDSWLAWYQQKPGKAPKLLIYAASSLQSGVPSRFSGSGSGTDFTLTISSLQPEDFATYYCQQGNSLPPITFGGGTKVEIK
notes: IgG
For B15, the MFI in assay [1] turned out to be 9020; in assay [2], 20900. The molecule also displayed a Kd in assay [3] of 2.88 nM.

B16: S-64 (antibody, V domains shown)
VH: QVQLQESGPGLVKPSETLSLTCAVSGYSISSGYYWGWIRQPPGKGLEWIGSIYHSGSTYYNPSLKSRVTISVDTSKNQFSLKLSSVTAADTAVYYCARAEHRGPRYFDLWGRGTLVTVSS
VL: DIQMTQSPSSLSASVGDRVTITCRASQSINSYLNWYQQKPGKAPKLLIYAASSLQSGVPSRFSGSGSGTDFTLTISSLQPEDFATYYCQQLDSTPITFGGGTKVEIK
notes: IgG
The molecule B16 showed an MFI in assay [1] of 7930. The same molecule returned a Kd in assay [4] of 24.2 nM.

B17: S-76 (antibody, V domains shown)
VH: QVQLQESGPGLVKPSQTLSLTCTVSGGSISSGGYYWSWIRQHPGKGLEWIGSIYYSGSTYYNPSLKSRVTISVDTSKNQFSLKLSSVTAADTAVYYCARGVGIQQQLVLGFDPWGQGTLVTVSS
VL: DIQMTQSPSSLSASVGDRVTITCRASQSISSFLNWYQQKPGKAPKLLISAASSLQSGVPSRFSGSGSGTDFTLTISSLQPEDFATYYCQQSYREPITFGGGTKVEIK
notes: IgG
For B17, the figures for the MFI in assay [1] and in assay [2] were 9680 and 4180, respectively. In assay [4], this molecule gave a Kd of 19 nM.

B18: S-16 (antibody, V domains shown)
VH: QVQLVQSGAEVKKPGSSVKVSCKASGGTFSSYAISWVRQAPGQGLEWMGGIIPIFGTANYAQKFQGRVTITADESTSTAYMELSSLRSEDTAVYYCARSPYSGTRDFDLWGRGTLVTVSS
VL: DIQMTQSPSSVSASVGDRVTITCRASQGISSWLAWYQQKPGKAPKLLIYAASNLQSGVPSRFSGSGSGTDFTLTISSLQPEDFATYYCQQGNSYPITFGGGTKVEIK
notes: IgG
Regarding B18, in assay [1], the MFI amounted to 6280. In addition, in assay [3], the Kd was found to be 3.8 nM.

B19: S-65 (antibody, V domains shown)
VH: QVQLQESGPGLVKPSETLSLTCAVSGYSISSGYYWGWIRQPPGKGLEWIGSIYHSGSTYYNPSLKSRVTISVDTSKNQFSLKLSSVTAADTAVYYCAREGQLPTGTFDYWGQGTLVTVSS
VL: not shown
notes: IgG
For the molecule B19, the MFI was found to be 8070 in assay [1] and 17900 in assay [2]. The Kd in assay [4] stood at 6.9 nM.
